The target in this data set is T1, flag-RARα (mRARα);myc-RXRα (mRXRα) (Mus musculus;Mus musculus, UniProt P11416;P28700 1-462;1-467, |).
T1 sequence 1: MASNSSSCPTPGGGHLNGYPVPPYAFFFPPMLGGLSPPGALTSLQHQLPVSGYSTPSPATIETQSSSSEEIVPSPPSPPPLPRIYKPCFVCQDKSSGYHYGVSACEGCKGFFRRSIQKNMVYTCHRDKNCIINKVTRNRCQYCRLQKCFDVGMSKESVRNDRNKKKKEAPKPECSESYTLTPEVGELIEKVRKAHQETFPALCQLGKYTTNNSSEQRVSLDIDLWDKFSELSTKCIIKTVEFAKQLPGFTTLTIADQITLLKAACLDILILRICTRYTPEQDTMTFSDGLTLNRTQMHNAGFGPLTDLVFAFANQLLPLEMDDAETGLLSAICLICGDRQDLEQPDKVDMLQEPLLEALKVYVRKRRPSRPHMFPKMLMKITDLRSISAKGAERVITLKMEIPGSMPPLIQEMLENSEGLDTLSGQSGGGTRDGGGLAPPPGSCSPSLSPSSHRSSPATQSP
T1 sequence 2: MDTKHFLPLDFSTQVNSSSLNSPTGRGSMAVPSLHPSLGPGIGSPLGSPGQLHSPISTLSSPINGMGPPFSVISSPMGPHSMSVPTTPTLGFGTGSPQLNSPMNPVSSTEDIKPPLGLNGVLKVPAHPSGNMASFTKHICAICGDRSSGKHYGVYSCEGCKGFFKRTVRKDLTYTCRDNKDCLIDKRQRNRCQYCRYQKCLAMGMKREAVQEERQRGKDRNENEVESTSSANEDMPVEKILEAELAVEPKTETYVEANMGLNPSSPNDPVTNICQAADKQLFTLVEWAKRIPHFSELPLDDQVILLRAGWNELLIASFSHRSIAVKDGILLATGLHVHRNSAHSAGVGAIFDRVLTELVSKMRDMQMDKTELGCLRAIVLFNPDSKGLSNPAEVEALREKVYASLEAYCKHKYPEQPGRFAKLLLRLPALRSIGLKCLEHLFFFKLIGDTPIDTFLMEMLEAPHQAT
Put plainly: EMSA; EMSA essentially as Forman et al. 1992 and Shtutman et al. 1999; buffer, salt, pH and temperature not stated. As to conditions: protein: ivt;ivt; tags: N-terminal flag;N-terminal myc; copies: 1;1; blunt (complement S6 printed; duplex implied).

B1: RARE3 mut (dsDNA)
DNA 1: CCGGCAGCTGCGATGACTGCTCCCTCCTTA
DNA 2: TAAGGAGGGAGCAGTCATCGCAGCTGCCGG
B1: the binding result is given as “no binding”.

The record behind these values is paper PMC4553633, “RA Acts in a Coherent Feed-Forward Mechanism with Tbx5 to Control Limb Bud Induction and Initiation”.
